Columns and labels:
[1] = tested on: pigs fed P-adequate corn-soybean meal basal diet; assay: Expt 1: metatarsal mineral concentrations (ICP); assay type: in vivo, pig
[2] = tested on: weanling pigs fed high P diet; assay: Examples 4-8: femoral and metacarpal mechanical properties, dimensions, cortical thickness; assay type: in vivo, pig; settings: 8 wk
Description: As in Examples 1-3, the animal protocol was approved by Cornell Animal Care and Use Committee. An 8-week feeding trial was conducted at Cornell University Swine Research Farm. […] Group 2 were fed a corn-soy basal diet (BD)+0.25% inorganic phosphorus (iP, dicalcium phosphate). Group 2 were fed BD+0.35% iP. […] The BD (Table 7) contained adequate levels of all nutrients except for P^(63), and 0.25% iP is the supplementation level recommended by NRC^(24) to meet the P needs of this age of pigs. […] Pigs were housed in an environmentally-controlled barn (20-25° C.; 12-light: 12-dark cycle), and given free access to feed and water.
Growth performance of pigs was monitored at two week intervals. Blood samples of all individual pigs (fasted overnight for 8 h) were collected at initial (week 0) and then bi-weekly from the anterior vena cava using 5-mL heparin syringes to assay for concentrations of plasma iP^(73), Ca and Sr^(63). At the end of experiment, 5 pigs (2 male and 3 female) from each group were killed by electrical stunning and exsanguination. Both left and front right legs from each animal were removed from the body.
After the skin and major muscles were removed, two left legs were subjected to X-ray radiography using a Faxitron machine (Model 43855A; Hewlett Packard, McMinnville, Oreg., USA). Bone radiographs of femur and metacarpals were quantified by the kodac software. The software counted the total number of pixels. Thereafter, the 3rd and 4th metacarpals and femurs were collected to measure length, weight, height, and width after removing the remaining muscle and connective tissue. After the X-ray analysis, the two left legs were used for bone mechanical and mineral testing. Bone mechanical properties were determined by a three-point bending test (ASAE Standard S459 1992) using an Instron 4500 Machine Universal Testing Instrument (Model 1122, Instron, Canton, Mass.) with Instron Series IX Automated Materials Testing System Software (version 4.05). During testing, force was applied to the center of the bone held by supports 2.0 cm apart for metacarpals and 3.3 cm apart for femurs. The crosshead speed was set at 50 mm/min and the sampling rate was at 10 points/sec. The extrinsic parameters (stiffness/slope, maximum load, energy to break, maximum displacement) were derived from the force-displacement curve. Bone breaking strength was calculated with the adjustment of bone weight, and the average strength of the 3rd and 4th metacarpal was used as the metacarpal strength for each pig.
After the above mechanical tests, midshaft sections of both femur and metacarpus were cut and washed with de-ionized water. The cortical thickness of both bones was measured by slide caliper in the midshaft. Cortical and cancellous bones were separated for total ash and mineral analysis. A 3-cm long and 3-mm thick midshaft of femur and 1-cm long and 1.5-mm thick midshaft of metacarpus were used for cortical ash analysis. For cancellous bone, sponge-like bone from 3-cm below the growth plate of femur and 1.5-cm below the growth plate of metacarpus were collected. For ash analysis, bones were oven-dried at 110° C. for 24 h, and incinerated in a muffle furnace at 550° C. for 96 h. Concentrations of individual elements in the ash were measured using inductively coupled argon plasma spectrophotometer (ICAP 61E Trace Analyzer, Thermo Jarell Ash corporation, Franklin, Mass.)^(63), and were expressed on ash basis.

[3] = 0.35% iP + Sr 50 mg/kg + phytase 3,400 U/kg, P<0.05

B1: Phytase: Escherichia coli AppA2 phytase (OptiPhos, JBS United, Inc.), added to diets at feed mixing; AppA2 is SEQ ID NO: 2 (protein, listed as Escherichia coli)
chain: MKAILIPFLSLLIPLTPQSAFAQSEPELKLESVVIVSRHGVRAPTKATQLMQDVTPDAWPTWPVKLGWLTPRGGELIAYLGHYQRQRLVADGLLAKKGCPQPGQVAIIADVDERTRKTGEAFAAGLAPDCAITVHTQADTSSPDPLFNPLKTGVCQLDNANVTDAILSRAGGSIADFTGHRQTAFRELERVLNFSQLNLCLNREKQDESCSLTQALPSELKVSADNVSLTGAVSLASMLTEIFLLQQAQGMPEPGWGRITDSHQWNTLLSLHNAQFYLLQRTPEVARSRATPLLDLIMAALTPHPPQKQAYGVTLPTSVLFIAGHDTNLANLGGALELNWTLPGQPDNTPPGGELVFERWRRLSDNSQWIQVSLVFQTLQQMRDKTPLSLNTPPGEVKLTLAGCEERNAQGMCSLAGFTQIVNEARIPACSL
B1 was tested, and the “higher Sr concentration in metatarsals vs BD” value ([1]; BD + phytase 2,000 U/kg, 6 wk, P<0.05) was 7%, the “metatarsal Ca concentration” value ([1]; phytase 2000 U/kg, n=8) was 217.3 g/kg and the “metatarsal Cr concentration” value ([1]; phytase 2000 U/kg, n=8) was 6.4 mg/kg. For the same molecule, the “metatarsal Fe concentration” value ([1]; phytase 2000 U/kg, n=8) was 15.7 mg/kg, the “metatarsal Mg concentration” value ([1]; phytase 2000 U/kg, n=8) was 3.6 g/kg and the “metatarsal Mn concentration” value ([1]; phytase 2000 U/kg, n=8) was 1.1 mg/kg. For the same molecule, the “metatarsal Na concentration” value ([1]; phytase 2000 U/kg, n=8) was 6.2 g/kg, the “metatarsal P concentration” value ([1]; phytase 2000 U/kg, n=8) was 109.2 g/kg and the “metatarsal S concentration” value ([1]; phytase 2000 U/kg, n=8) was 1.2 g/kg. For the same molecule, the “metatarsal Sr concentration” value ([1]; phytase 2000 U/kg, n=8) was 62.8 mg/kg, the “metatarsal Zn concentration” value ([1]; phytase 2000 U/kg, n=8) was 176.1 mg/kg and the “greater cortical bone thickness of femur vs 0.35% iP” value [2, 3] was 32%. The “greater cortical bone thickness of metacarpus vs 0.35% iP” value [2, 3] was 7%, the “greater energy to break of femur vs 0.35% iP” value [2, 3] was 26% and the “greater energy to break of metacarpus vs 0.35% iP” value [2, 3] was 14%. The “greater maximal load of femur vs 0.35% iP” value [2, 3] was 38%, the “greater maximal load of metacarpus vs 0.35% iP” value [2, 3] was 20% and the “greater stiffness of femur vs 0.35% iP” value [2, 3] was 12%. For the same molecule, the “greater stiffness of metacarpus vs 0.35% iP” value [2, 3] was 8%, the “femoral Cross-sectional area” value ([2]; 0.35% iP + phytase 3400 U, n=5) was 199.7 mm^2 and the “femoral Height” value ([2]; 0.35% iP + phytase 3400 U, n=5) was 21.8 mm. The “femoral Length” value ([2]; 0.35% iP + phytase 3400 U, n=5) was 143.7 mm, the “femoral Max. Displacement” value ([2]; 0.35% iP + phytase 3400 U, n=5) was 4.9 mm and the “femoral Weight” value ([2]; 0.35% iP + phytase 3400 U, n=5) was 202.2 g. For the same molecule, the “femoral Width” value ([2]; 0.35% iP + phytase 3400 U, n=5) was 23.3 mm, the “metacarpal Height” value ([2]; 0.35% iP + phytase 3400 U, n=5) was 14.8 mm and the “metacarpal Length” value ([2]; 0.35% iP + phytase 3400 U, n=5) was 60.5 mm. The “metacarpal Max. Displacement” value ([2]; 0.35% iP + phytase 3400 U, n=5) was 8.9 mm, the “metacarpal Weight” value ([2]; 0.35% iP + phytase 3400 U, n=5) was 19.2 g and the “metacarpal Width” value ([2]; 0.35% iP + phytase 3400 U, n=5) was 15.0 mm.
